# Values joined by “and” are separate entries in the source; they are usually repeats but may differ in a detail not shown here. Equal values may be shown once.
# T1: CNX-his antigen (Genscript) (human, UniProt P27824 21-481, limits assumed)
# T1 construct: also called human CNX-His; recombinant CNX-histidine tag
# T1 sequence (looked up): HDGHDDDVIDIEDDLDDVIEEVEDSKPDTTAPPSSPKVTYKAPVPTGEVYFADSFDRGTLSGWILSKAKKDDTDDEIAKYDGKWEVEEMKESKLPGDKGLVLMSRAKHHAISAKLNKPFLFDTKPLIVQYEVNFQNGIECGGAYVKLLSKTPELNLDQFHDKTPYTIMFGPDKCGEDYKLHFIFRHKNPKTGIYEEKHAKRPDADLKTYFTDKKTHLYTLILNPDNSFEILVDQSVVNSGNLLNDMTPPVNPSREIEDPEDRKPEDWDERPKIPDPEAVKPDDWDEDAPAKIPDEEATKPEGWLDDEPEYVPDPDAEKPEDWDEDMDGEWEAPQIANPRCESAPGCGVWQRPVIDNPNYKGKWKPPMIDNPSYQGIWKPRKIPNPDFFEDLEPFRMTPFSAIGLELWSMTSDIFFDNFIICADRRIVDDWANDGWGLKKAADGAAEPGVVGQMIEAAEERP
# T2: recombinant human CNX protein with a polyhistidine tag at the C-terminus (HuCANX_His) (human, UniProt P27824 21-481, limits assumed)
# T2 construct: also called HuCANX with a His tag
# T2 sequence (looked up): T1 sequence (looked up)
# T3: CRT in cell extracts (HeLa; MDA-231) (human, UniProt P27797 18-417)
# T3 construct: Denatured endogenous protein in western blots; also called calreticulin
# T3 sequence (looked up): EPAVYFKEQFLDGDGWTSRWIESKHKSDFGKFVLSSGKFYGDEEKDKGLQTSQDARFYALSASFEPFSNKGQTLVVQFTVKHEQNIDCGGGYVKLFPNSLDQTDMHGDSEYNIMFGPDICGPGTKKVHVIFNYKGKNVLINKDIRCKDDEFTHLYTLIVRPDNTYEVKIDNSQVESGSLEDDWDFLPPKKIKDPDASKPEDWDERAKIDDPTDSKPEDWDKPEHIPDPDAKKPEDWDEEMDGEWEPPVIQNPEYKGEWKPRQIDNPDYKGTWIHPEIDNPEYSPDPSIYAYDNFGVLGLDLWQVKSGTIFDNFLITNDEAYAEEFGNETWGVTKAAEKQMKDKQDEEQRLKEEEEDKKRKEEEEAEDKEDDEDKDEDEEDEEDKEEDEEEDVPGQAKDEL
# T4: Recombinant human CANX protein fused with the Fc region of human IgG1 at the C-terminus (HuCANX_hFc) (human, UniProt P27824 21-481, limits assumed, biotinylated in the ELISAs)
# T4 construct: also called biotinylated HuCANX with a human Fc tag; not shown: Fc region of human IgG1 at the C-terminus
# T4 sequence (looked up): T1 sequence (looked up)
# T5: MsCANX_His (mouse, UniProt P35564)
# T5 construct: recombinant, C-terminal polyhistidine tag; also called recombinant mouse CANX protein with a polyhistidine tag at the C-terminus
# T5 sequence (antigen, looked up): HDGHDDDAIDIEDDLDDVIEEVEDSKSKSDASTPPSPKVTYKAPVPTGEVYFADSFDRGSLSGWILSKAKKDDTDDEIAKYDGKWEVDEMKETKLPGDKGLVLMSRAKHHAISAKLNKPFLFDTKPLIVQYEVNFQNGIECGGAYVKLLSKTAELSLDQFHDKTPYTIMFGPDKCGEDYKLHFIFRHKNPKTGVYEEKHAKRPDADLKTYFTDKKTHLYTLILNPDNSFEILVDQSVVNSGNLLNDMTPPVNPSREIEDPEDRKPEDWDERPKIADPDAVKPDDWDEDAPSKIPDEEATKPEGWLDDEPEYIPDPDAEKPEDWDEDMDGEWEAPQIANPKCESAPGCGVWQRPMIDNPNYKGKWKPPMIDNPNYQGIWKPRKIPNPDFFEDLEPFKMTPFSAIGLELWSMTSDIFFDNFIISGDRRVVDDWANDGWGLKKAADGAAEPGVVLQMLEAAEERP
# B1: C008 IgG1 (antibody, V domains shown)
# VH: QVQLVQSGGGVVQPGRSLRLSCAASGFTVSSNYMSWVRQAPGKGLEWVSVIYSGGSTYYADSVKGRFTISRDNSKNTLYLQMNSLRAEDTAVYYCARGSRAVAGAFDYWGQGTLVTVSS
# VL: YSELTQDPAVSVALGQTVRITCQGDSLRTYYANWYQQKPGQAPVLVMYAKNHRPSGIPDRFSGSSSGNTASLTITGAQAEDEADYYCGSRDSSGNHPVFGGGTKVTVLG
# notes: scFv clone 8 converted to human IgG1 (pFUSEss-CHIg-hG1 and pFUSE2ss-CLIg-hl2); also called IgG1 clone 8; Igg clone 8
# B2: 5E8 IgG1 (antibody)
# heavy: not shown
# light: DIQLTQSPSSLSASVGDRVTITCRASQSISTYINWYQQKPGKAPKLLIYFASSLQSGVPSRFSGGGSGTDFTLTISSLQPEDFATYYCQQSYNIPVTFGQGTKVEVTRTVAAPSIFIFPPSDEQLKSGTASVVCLLNNFYPREAKVQWKVDNALQSGNSQESVTEQDSKDSTYSLSSTLTLSKADYEKHKVYACEVTHQGLSSPVTKSFNRGEC
# B3: monoclonal anti-CNX antibody clone 2G9 (antibody, V domains shown)
# VH: QVTLKESGGGVVQPGRSLRLSCAASGFTFSSYGMHWVRQAPGKGLEWVAVISYDGSNKYYADSVKGRFTISRDNSKNTLYLQMNSLRAEDTAVYYCTQGRDYWGQGTLVTVSS
# VL: QAVLTQPSSLSASPGASASLTCTLRSGINVGTYRIYWYQQKPGSPPQYLLRYKSDSDKQQGSGVPSRFSGSKDASANAGILLISGLQSEDEADYYCMIWHSSAWVFGGGTKLTVL
# notes: also called 2GP
# Columns and labels:
# [1] = target: T1, CNX-his antigen (Genscript); assay: ELISA, CNX-his coated, antibody titrated, HRP secondary, 4-parameter fit
# Procedure: (§1) CNX-his antigen (Genscript) was diluted in bicarbonate/carbonate antigen coating buffer (100 mM NaHCO₃) and coated on maxisorp microplates shaking overnight at 4 C. […] The wells were washed 3 times with PBST before the addition of antibodies at several indicated dilution in 2% BSA-PBST and incubated for 1 hour at 37 C. The wells were washed 3 times with PBST. The specific anti-human secondary antibody conjugated with horseradish peroxidase was diluted and added to wells with a subsequent incubation for 1 hour at 37° C. Then wells were washed 3 times with PBST. Addition of TMB solution was performed and incubated at room temperature for 30 mins or until desired color change was attained. Addition of 0.1 M HCL to stop reaction was then added and measurement of absorbance at 450 nm on a microplate reader was then followed. […] CNX ab10286 (abcam) and a human Igg1 unrelated were used as positive and negative control respectively. 4 parameters logistic curve fit were used to calculate EC50.
# [2] = target: T1, CNX-his antigen (Genscript); assay: ELISA, CNX-his coated, antibody titrated, anti-human-HRP
# [3] = target: T2, recombinant human CNX protein with a …; assay: BLI, IgG1 on AHC biosensor, HuCANX_His 200-3.13 nM
# Procedure: The 5 antibody clones were loaded and captured by the anti-human IgG Fc capture (AHC) biosensors. The biosensors were dipped into a range of HuCANX_His protein concentrations (from 200 nM to 3.13 nM, in 2-fold dilutions), the kinetics of the association and dissociation were then recorded.
# [4] = target: T3, CRT in cell extracts (HeLa; MDA-231); assay: western blot, extracts of MDA-231 and MDA-231 CNX-/- cells
# [5] = target: T6, CNX-mcherry fluorescent protein expressed in Huh7 cells; assay: immunofluorescence, Huh7 CNX-mcherry cells minus plain Huh7 cells, anti-human Alexa 647
# T6 construct: Target of immunofluorescence staining inside transfected Huh7 cells
# T6 sequence (P27824 whole entry): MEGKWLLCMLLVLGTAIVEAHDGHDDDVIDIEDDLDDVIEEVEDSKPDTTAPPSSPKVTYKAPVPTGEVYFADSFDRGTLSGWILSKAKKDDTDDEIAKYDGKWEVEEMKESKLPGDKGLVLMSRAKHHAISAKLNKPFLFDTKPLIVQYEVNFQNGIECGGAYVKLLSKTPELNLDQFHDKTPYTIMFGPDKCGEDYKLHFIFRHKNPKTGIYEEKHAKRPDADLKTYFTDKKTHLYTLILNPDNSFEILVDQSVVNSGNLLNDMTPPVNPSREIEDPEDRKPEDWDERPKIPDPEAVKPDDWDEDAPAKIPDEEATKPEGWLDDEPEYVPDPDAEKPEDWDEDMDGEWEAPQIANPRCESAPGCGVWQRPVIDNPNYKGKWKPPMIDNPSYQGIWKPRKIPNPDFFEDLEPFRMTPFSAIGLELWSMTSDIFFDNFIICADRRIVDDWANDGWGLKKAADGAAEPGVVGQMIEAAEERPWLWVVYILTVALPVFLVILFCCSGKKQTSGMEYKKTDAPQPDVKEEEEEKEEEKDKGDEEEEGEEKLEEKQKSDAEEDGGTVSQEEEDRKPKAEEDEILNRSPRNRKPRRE
# Description: A secondary anti-human antibody conjugated to Alexa fluorophore 647 was used. […] The signal obtained from normal Huh7 without CNX mCherry was used to normalize the signal obtained with Huh7 CNX-mcherry. […] Thus, these specific antibodies could detect CNX overexpression in CNX mCherry cells in immunofluorescence application settings.
# [6] = target: T4, Recombinant human CANX protein fused …; assay: ELISA, IgG1 coated 2 ug/ml, biotinylated antigen titrated (EC50 is of the antigen), streptavidin-HRP
# Procedure: The 15 antibody clones were tested using ELISA against biotinylated recombinant HuCANX_hFc protein to assess binding avidity for the target, with an irrelevant IgG1 used as a negative control antibody. In brief, the 15 antibody clones were coated at 2 μg/ml onto the 96-well ELISA plates overnight at 4° C. After blocking with casein for 2 hours, the biotinylated antigen was added at different concentrations (3 times serial dilutions) and incubated for 1 hour. The wells were then washed with PBST and detected by HRP conjugated streptavidin. […] antibody clones were also tested in ELISA against recombinant HuCANX_His protein to assess binding affinity for the target, with an irrelevant IgG1 used as a negative control antibody. In brief, the 15 antibody clones were coated at 10 nM onto the 96-well ELISA plates overnight at 4° C. After blocking with casein for 2 hours, the antigen was added at different concentrations (3 times serial dilutions) and incubated for 1 hour. The wells were then washed with PBST and detected by HRP conjugated anti-His tag antibody.
# [7] = target: T3, CRT in cell extracts (HeLa; MDA-231); assay: immunoblot of HeLa extracts (WT, CNX KD, CRT KD), anti-human HRP
# Procedure: All Fabs converted to IgG1 were tested for western blotting detection using Hela extract from cells untreated or subjected to 72H knock down with an siRNA against CNX or CRT (CRT). After SDS-PAGE and transfer to nitrocellulose membranes, membranes were blocked with BSA and incubated with 1 μg/ml antibody solution overnight, following multiple washes, an anti-human HRP secondary antibody was used for detection of tested antibodies.
# MsCANX_His = target: T5, MsCANX_His; assay: BLI, IgG1 on AHC biosensor, MsCANX_His 200-0.39 nM
# Procedure: The binding affinity of the 15 antibody clones to recombinant mouse CANX protein with a polyhistidine tag at the C-terminus (MsCANX_His) was measured by Bio-Layer Interferometry. The 15 antibody clones were loaded and captured by the anti-human IgG Fc capture (AHC) biosensors (FIG. 6). The biosensors were dipped into a range of MsCANX_His protein concentrations (from 200 nM to 0.39 nM, in 2-fold dilutions), the kinetics of the association and dissociation were then recorded.
# [8] = target: T1, CNX-his antigen (Genscript); assay: ELISA, CNX-his coated, antibody titrated, HRP secondary, 4-parameter fit; printed in grey: Curve did not plateau in ELISA
# Procedure: as §1
# [9] = target: T1, CNX-his antigen (Genscript); assay: ELISA, His-tagged human CNX coated, serial dilutions of antibody
# BSA = target: T7, BSA (UniProt P02769 25-607); assay: ELISA, BSA-coated control wells
# T7 construct: Control coating in ELISAs; also called bovine serum albumin
# T7 sequence (P02769 25-607 limits assumed): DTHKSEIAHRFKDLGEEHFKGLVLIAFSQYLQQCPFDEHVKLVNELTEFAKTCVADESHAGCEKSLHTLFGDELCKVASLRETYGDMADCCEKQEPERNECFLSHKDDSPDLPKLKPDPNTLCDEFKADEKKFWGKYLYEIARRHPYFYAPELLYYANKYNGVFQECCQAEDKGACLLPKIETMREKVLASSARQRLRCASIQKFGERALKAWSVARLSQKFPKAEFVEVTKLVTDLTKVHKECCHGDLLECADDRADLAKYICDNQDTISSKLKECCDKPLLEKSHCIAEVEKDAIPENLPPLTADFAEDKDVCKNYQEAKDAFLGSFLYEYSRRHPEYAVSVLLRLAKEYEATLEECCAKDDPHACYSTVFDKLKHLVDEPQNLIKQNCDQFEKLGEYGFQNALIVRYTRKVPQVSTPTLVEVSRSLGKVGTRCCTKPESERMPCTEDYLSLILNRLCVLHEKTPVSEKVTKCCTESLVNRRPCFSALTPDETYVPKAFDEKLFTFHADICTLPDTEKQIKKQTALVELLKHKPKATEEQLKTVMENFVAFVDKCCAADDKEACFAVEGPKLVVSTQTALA
# [10] = target: T1, CNX-his antigen (Genscript); assay: ELISA with serial dilutions of the antibody on coated His-tagged human CNX
Binder,EC50 [1],EC50 [2] [nM],Kd [3] [nM],koff [3] [s⁻¹],kon [3] [M⁻¹ s⁻¹],binding result [4],Intensity (CNX+ cells - CNX -ve) [5],EC50 [6] [nM],binding result [7],Kd (MsCANX_His) [nM],koff (MsCANX_His) [s⁻¹],kon (MsCANX_His) [M⁻¹ s⁻¹],EC50 [8] [ng/mL],EC50 [9] [ng/mL],binding result (BSA),EC50 (read off the curve) [10] [ng/mL]
B1,0.0643 µg/mL and 0.43 nM,> 0.1,5.56,0.000225,40400,binds,3140,–,–,–,–,–,–,–,–,–
B2,–,–,–,–,–,–,945,2.14,no binding (tested: 1 ug/ml),5.8,0.00111,192000,8490,–,–,–
B3,–,–,–,–,–,–,–,–,–,–,–,–,–,~0.0031,no binding (tested: 10 ug/ml (concentration from the text)),~3

# — patent US20260250378A1 (AGENCY FOR SCIENCE TECHNOLOGY AND RESEARCH, published 2026)
